In publication PMC10952593, “Synthetic cannabinoid receptor agonists are monoamine oxidase‐A selective inhibitors” (The Febs Journal, 2023):

Substrate: NCc1ccccc1
Assay: purified protein
Assay type: biochemical, Homo sapiens
Conditions: 30 μM MAO-B [sic], 50 mM HEPES pH 7.5, 0.5% Triton X-100, 25 °C

B1: MAO-B (Homo sapiens) (protein)
chain: SNKCDVVVVGGGISGMAAAKLLHDSGLNVVVLEARDRVGGRTYTLRNQKVKYVDLGGSYVGPTQNRILRLAKELGLETYKVNEVERLIHHVKGKSYPFRGPFPPVWNPITYLDHNNFWRTMDDMGREIPSDAPWKAPLAEEWDNMTMKELLDKLCWTESAKQLATLFVNLCVTAETHEVSALWFLWYVKQCGGTTRIISTTNGGQERKFVGGSGQVSERIMDLLGDRVKLERPVIYIDQTRENVLVETLNHEMYEAKYVISAIPPTLGMKIHFNPPLPMMRNQMITRVPLGSVIKCIVYYKEPFWRKKDYCGTMIIDGEEAPVAYTLDDTKPEGNYAAIMGFILAHKARKLARLTKEERLKKLCELYAKVLGSLEALEPVHYEEKNWCEEQYSGGCYTTYFPPGILTQYGRVLRQPVDRIYFAGTETATHWSGYMEGAVEAGERAAREILHAMGKIPEDEIWQSEPESVDVPAQPITTTFLERHLPSVPGLLRLIGLTTIFSATALGFLAHKRGLLVRV
notes: FAD enzyme; PDB 2V5Z was only the docking model
Km: 140 ± 30 µM
